# Results taken from IntAct's records for PubMed 19666841.
# B1: Glycerol-3-phosphate dehydrogenase 1-like protein (Homo sapiens), Q8N335 (parent)
# chain: MAAAPLKVCIVGSGNWGSAVAKIIGNNVKKLQKFASTVKMWVFEETVNGRKLTDIINNDHENVKYLPGHKLPENVVAMSNLSEAVQDADLLVFVIPHQFIHRICDEITGRVPKKALGITLIKGIDEGPEGLKLISDIIREKMGIDISVLMGANIANEVAAEKFCETTIGSKVMENGLLFKELLQTPNFRITVVDDADTVELCGALKNIVAVGAGFCDGLRCGDNTKAAVIRLGLMEMIAFARIFCKGQVSTATFLESCGVADLITTCYGGRNRRVAEAFARTGKTIEELEKEMLNGQKLQGPQTSAEVYRILKQKGLLDKFPLFTAVYQICYESRPVQEMLSCLQSHPEHT
# Variants of: B1
# Settings: with scn5a_human SCN5A
row,Variant,effect of a mutation on the interaction
1,MAAAPLKVCIVGSGNWGSAVAKIIGNNVKKLQKFASTVKMWVFEETVNGRKLTDIINNDHENVKYLPGHKLPENVVAMSNLSKAVQDADLLVFVIPHQFIHRICDEITGRVPKKALGITLIKGIDEGPEGLKLISDIIREKMGIDISVLMGANIANEVAAEKFCETTIGSKVMENGLLFKELLQTPNFRITVVDDADTVELCGALKNIVAVGAGFCDGLRCGDNTKAAVIRLGLMEMIAFARIFCKGQVSTATFLESCGVADLITTCYGGRNRRVAEAFARTGKTIEELEKEMLNGQKLQGPQTSAEVYRILKQKGLLDKFPLFTAVYQICYESRPVQEMLSCLQSHPEHT [E83K],with no effect
2,MAAAPLKVCIVGSGNWGSAVAKIIGNNVKKLQKFASTVKMWVFEETVNGRKLTDIINNDHENVKYLPGHKLPENVVAMSNLSEAVQDADLLVFVIPHQFIHRICDEITGRVPKKALGITLIKGIDEGPEGLKLISDIIREKMGIDISVLMGANIANEVAAEKFCETTIGSKVMENGLLFKELLQTPNFRITVVDDADTVELCGALKNIVAVGAGFCDGLRCGDNTKAAVIRLGLMEMIAFARIFCKGQVSTATFLESCGVADLITTCYGGRNRRVAEAFVRTGKTIEELEKEMLNGQKLQGPQTSAEVYRILKQKGLLDKFPLFTAVYQICYESRPVQEMLSCLQSHPEHT [A280V],with no effect
